Numbered stars: 1 amine (or outer) side, 2 acyl side, 3 side chain; on linkers, the order of the positions; unused ones are H or OH. Square brackets hold non-standard residues; d marks the D form. Side chains are listed from the residue outwards. Ends that are not written are not given here. * marks the point of attachment. C20 diacid = O=C(O)CCCCCCCCCCCCCCCCCCC(=O)*; γGlu = O=C(O)[C@H](CCC(=O)[*:2])N[*:1]; αMeF = C[C@](N)(Cc1ccccc1)C(=O)O; AEEA = NCCOCCOCC(=O)O; Aib = CC(C)(N)C(=O)O
T1: human GIP receptor (human, UniProt P48546 22-466)
T1 sequence (looked up): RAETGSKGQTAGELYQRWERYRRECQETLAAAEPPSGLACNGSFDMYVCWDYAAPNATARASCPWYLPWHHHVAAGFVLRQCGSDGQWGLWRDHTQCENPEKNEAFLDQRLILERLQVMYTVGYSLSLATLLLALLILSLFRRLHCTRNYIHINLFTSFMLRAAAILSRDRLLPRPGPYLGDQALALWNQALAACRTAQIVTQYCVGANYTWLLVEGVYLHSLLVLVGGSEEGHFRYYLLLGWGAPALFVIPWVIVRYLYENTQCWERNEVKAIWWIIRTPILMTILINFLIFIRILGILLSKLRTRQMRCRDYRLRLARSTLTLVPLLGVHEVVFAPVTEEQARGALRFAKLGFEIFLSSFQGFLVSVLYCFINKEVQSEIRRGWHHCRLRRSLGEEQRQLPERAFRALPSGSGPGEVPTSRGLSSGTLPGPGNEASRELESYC

B1: Example 5 (peptide)
peptide: YXEGTXTSDVSIXLDXKAQXEFIXXLIEGGPSSGAPPPS
modifications: Aib2; αMeF(2F)6; αMeL13; Orn16; K17((2-[2-(2-Amino-ethoxy)-ethoxy]-acetyl)2-(γ-Glu)-CO-(CH2)16-CO2H); Aib20; D-Glu24; αMeY25; C-terminal NH2
B2: Example 91 (peptide)
peptide: YXXGTFTSDYSILLDKKAQXAFIEYLIEGGPSSGAPPPS
modifications: Aib2; γ-Glu3; K17((2-[2-(2-Amino-ethoxy)-ethoxy]-acetyl)2-(γ-Glu)-CO-(CH2)18-CO2H); Aib20; C-terminal NH2
B3: Example 92 (peptide)
peptide: Y[Aib]EGT[αMeF]TSDK([AEEA-AEEA-γGlu-C20 diacid])SILLDKIAQ[Aib]AFIEYLIEGG-NH2
modifications: N-terminus assumed
SMILES: CC[C@H](C)[C@H](NC(=O)[C@H](CCCCN)NC(=O)[C@H](CC(=O)O)NC(=O)[C@H](CC(C)C)NC(=O)[C@H](CC(C)C)NC(=O)[C@@H](NC(=O)[C@H](CO)NC(=O)[C@H](CCCCNC(=O)COCCOCCNC(=O)COCCOCCNC(=O)CC[C@H](NC(=O)CCCCCCCCCCCCCCCCCCC(=O)O)C(=O)O)NC(=O)[C@H](CC(=O)O)NC(=O)[C@H](CO)NC(=O)[C@@H](NC(=O)[C@](C)(Cc1ccccc1)NC(=O)[C@@H](NC(=O)CNC(=O)[C@H](CCC(=O)O)NC(=O)C(C)(C)NC(=O)[C@@H](N)Cc1ccc(O)cc1)[C@@H](C)O)[C@@H](C)O)[C@@H](C)CC)C(=O)N[C@@H](C)C(=O)N[C@@H](CCC(N)=O)C(=O)NC(C)(C)C(=O)N[C@@H](C)C(=O)N[C@@H](Cc1ccccc1)C(=O)N[C@H](C(=O)N[C@@H](CCC(=O)O)C(=O)N[C@@H](Cc1ccc(O)cc1)C(=O)N[C@@H](CC(C)C)C(=O)N[C@H](C(=O)N[C@@H](CCC(=O)O)C(=O)NCC(=O)NCC(N)=O)[C@@H](C)CC)[C@@H](C)CC
B4: Example 90 (peptide)
peptide: Y[Aib]NGTFTSDYSILLDKK([AEEA-AEEA-γGlu-C20 diacid])AQ[Aib]AFIEYLIEGGPSSGAPPPS-NH2
modifications: N-terminus assumed
SMILES: CC[C@H](C)[C@H](NC(=O)[C@H](CC(C)C)NC(=O)[C@H](Cc1ccc(O)cc1)NC(=O)[C@H](CCC(=O)O)NC(=O)[C@@H](NC(=O)[C@H](Cc1ccccc1)NC(=O)[C@H](C)NC(=O)C(C)(C)NC(=O)[C@H](CCC(N)=O)NC(=O)[C@H](C)NC(=O)[C@H](CCCCNC(=O)COCCOCCNC(=O)COCCOCCNC(=O)CC[C@H](NC(=O)CCCCCCCCCCCCCCCCCCC(=O)O)C(=O)O)NC(=O)[C@H](CCCCN)NC(=O)[C@H](CC(=O)O)NC(=O)[C@H](CC(C)C)NC(=O)[C@H](CC(C)C)NC(=O)[C@@H](NC(=O)[C@H](CO)NC(=O)[C@H](Cc1ccc(O)cc1)NC(=O)[C@H](CC(=O)O)NC(=O)[C@H](CO)NC(=O)[C@@H](NC(=O)[C@H](Cc1ccccc1)NC(=O)[C@@H](NC(=O)CNC(=O)[C@H](CC(N)=O)NC(=O)C(C)(C)NC(=O)[C@@H](N)Cc1ccc(O)cc1)[C@@H](C)O)[C@@H](C)O)[C@@H](C)CC)[C@@H](C)CC)C(=O)N[C@@H](CCC(=O)O)C(=O)NCC(=O)NCC(=O)N1CCC[C@H]1C(=O)N[C@@H](CO)C(=O)N[C@@H](CO)C(=O)NCC(=O)N[C@@H](C)C(=O)N1CCC[C@H]1C(=O)N1CCC[C@H]1C(=O)N1CCC[C@H]1C(=O)N[C@@H](CO)C(N)=O

Assays:
human GIP receptor = molecular target: T1, human GIP receptor; test: cell-based or functional assay
human GLP-1 receptor = human GLP-1 receptor (human, UniProt P43220 24-463); test: cell-based or functional assay

Binder	hGIPR cAMP EC50 ratio (human GIP receptor)	hGIPR cAMP Rel EC50 (human GIP receptor)	hGLP1R cAMP EC50 ratio (human GLP-1 receptor)	hGLP1R cAMP Rel EC50 (human GLP-1 receptor)
B1	6.27	0.0309 nM	2.69	0.0164 nM
B2	0.0103	19.2 nM	< 1.08e-05	> 5000 nM
B3	0.546	0.338 nM	0.258	0.257 nM
B4	5.17	0.0361 nM	0.11	0.532 nM

From patent US20220048967A1 (published 2022)
